Test [1] has as its target human FcγRIIa-H variant (Histidine at amino acid 131), on Jurkat effector cells (human) (UniProt P12318). Nature of the test: cell-based or functional assay.
The target of test [2] is FcγRIIIa, on Jurkat effector cells (UniProt P08637). Nature of the test: cell-based or functional assay.
FcγRIIIa, on Jurkat effector cells, sequence (P08637 17-254 limits assumed): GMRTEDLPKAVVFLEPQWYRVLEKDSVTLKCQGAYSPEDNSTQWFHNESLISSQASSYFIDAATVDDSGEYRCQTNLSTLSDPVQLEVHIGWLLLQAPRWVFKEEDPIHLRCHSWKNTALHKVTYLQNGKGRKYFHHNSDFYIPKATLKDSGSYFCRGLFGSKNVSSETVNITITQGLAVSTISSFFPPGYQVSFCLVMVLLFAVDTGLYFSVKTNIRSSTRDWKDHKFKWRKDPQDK

human FcγRIIa-H variant (Histidine at amino acid 131), on Jurkat effector cells (human), sequence (P12318 34-317, change not shown): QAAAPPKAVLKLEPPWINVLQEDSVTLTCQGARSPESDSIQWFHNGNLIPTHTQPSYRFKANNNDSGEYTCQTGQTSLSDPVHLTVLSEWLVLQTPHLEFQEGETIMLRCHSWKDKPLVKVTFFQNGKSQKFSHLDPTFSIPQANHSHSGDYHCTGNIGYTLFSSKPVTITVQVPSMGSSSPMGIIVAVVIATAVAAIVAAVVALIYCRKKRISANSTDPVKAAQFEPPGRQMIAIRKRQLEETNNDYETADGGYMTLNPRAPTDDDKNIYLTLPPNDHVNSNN

In test [1], “obinutuzumab monoclonal antibody, fucosylated” returned an EC50 (nM), Mean; FcγRIIa signaling in an ADCP reporter assay (luciferase, Raji target cells) of 7.1 nM. For the same substance, the EC50 (nM), Mean; FcγRIIIa signaling in an ADCC reporter assay (luciferase, Raji target cells) in test [2] came out at 0.08 nM.

In test [2], “avelumab monoclonal antibody, fucosylated” showed an EC50 (nM), Mean; FcγRIIIa signaling in an ADCC reporter assay (luciferase, HEK-PD-L1 target cells) of 0.049 nM.

Values taken from patent publication US20210238310A1.
